Measured values published in PMC8517284.

Target: FLAG-tagged CysD3 (DIO3, NM_001362, selenocysteine codon replaced with cysteine) (UniProt P55073)
Test: co-IP

Myc-tagged β3 integrin (NM_000212.2), sequence (P05106 27-788): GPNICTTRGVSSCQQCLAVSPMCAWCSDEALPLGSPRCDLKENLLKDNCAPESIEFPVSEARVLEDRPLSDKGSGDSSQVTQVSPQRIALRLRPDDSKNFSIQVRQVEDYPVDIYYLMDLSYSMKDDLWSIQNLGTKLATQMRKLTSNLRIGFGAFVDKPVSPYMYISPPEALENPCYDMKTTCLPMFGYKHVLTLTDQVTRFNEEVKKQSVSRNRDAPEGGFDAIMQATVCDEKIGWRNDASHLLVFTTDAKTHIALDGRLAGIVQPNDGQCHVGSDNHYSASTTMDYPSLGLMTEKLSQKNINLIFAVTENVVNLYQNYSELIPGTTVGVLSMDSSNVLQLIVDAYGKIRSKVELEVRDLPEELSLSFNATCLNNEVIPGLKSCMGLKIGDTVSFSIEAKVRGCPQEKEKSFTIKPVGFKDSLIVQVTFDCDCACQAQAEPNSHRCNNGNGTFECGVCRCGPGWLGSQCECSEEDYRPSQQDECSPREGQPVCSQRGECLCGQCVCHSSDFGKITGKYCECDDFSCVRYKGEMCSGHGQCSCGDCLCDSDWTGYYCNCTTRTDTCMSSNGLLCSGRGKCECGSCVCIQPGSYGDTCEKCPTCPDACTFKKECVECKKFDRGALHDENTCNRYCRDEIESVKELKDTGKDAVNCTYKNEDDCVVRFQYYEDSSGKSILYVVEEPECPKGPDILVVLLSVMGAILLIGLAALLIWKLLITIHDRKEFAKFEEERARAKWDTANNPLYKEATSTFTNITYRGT
FLAG-tagged CysD3 (DIO3, NM_001362, selenocysteine codon replaced with cysteine), sequence (P55073 whole entry): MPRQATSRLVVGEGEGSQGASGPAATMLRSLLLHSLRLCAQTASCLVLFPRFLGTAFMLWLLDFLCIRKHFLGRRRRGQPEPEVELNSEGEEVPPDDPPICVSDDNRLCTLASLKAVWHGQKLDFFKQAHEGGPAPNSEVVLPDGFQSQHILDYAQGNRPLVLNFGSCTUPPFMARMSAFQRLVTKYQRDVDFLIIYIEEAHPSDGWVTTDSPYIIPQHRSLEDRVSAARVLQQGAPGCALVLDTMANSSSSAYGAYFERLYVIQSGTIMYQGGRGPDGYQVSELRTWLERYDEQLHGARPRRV

fold reduction of the co-immunoprecipitation in the presence of cRGD and Tetrac: > 2 fold
Substance: Myc-tagged β3 integrin (NM_000212.2) (from UniProt P05106-1 27-788) (receptor)
